T1: Human ICOS (human, UniProt Q9Y6W8 21-199)
T1 construct: Native ICOS in or on CD4+ T cells of human PBMCs; M13 stains it in fixed and permeabilized cells; also called Inducible T-cell COStimulator; CD278
T1 sequence: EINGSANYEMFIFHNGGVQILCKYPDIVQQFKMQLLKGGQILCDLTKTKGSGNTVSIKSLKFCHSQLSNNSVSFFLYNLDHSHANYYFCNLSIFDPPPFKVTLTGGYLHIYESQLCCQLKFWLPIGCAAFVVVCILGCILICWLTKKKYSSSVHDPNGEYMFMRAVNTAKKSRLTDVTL

B1: M13 anti-ICOS detection antibody (antibody, V domains shown)
VH: EVQLQQSGAELVRPGAVVKLSCKASGFDIKDYYMHWVQQRPEQGLEWIGWIDPENGNAVYDPQFQGKASITADTSSNTAYLQLSSLTSEDTAVYYCASDYYGSKGYLDVWGAGTTVTVSS
VL: QIVLTQSPTIMSASPGEKVTITCSASSSVSYMHWFQQKPGTSPKLWIYSTSNLASGVPARFGGSRSGTSYSLTISRMEAEDAATYYCQQRSSYPFTFGSGTKLEIK
notes: also called 2M13; biotinylated M13 anti-ICOS detection antibody
B2: JTX-2011 (antibody, V domains shown)
VH: EVQLVESGGGLVQPGGSLRLSCAASGFTFSDYWMDWVRQAPGKGLVWVSNIDEDGSITEYSPFVKGRFTISRDNAKNTLYLQMNSLRAEDTAVYYCTRWGRFGFDSWGQGTLVTVSS
VL: DIVMTQSPDSLAVSLGERATINCKSSQSLLSGSFNYLTWYQQKPGQPPKLLIFYASTRHTGVPDRFSGSGSGTDFTLTISSLQAEDVAVYYCHHHYNAPPTFGPGTKVDIKR

Tests used:
Human ICOS [1] = target: T1, Human ICOS; assay: intracellular flow cytometry on permeabilized human PBMCs, streptavidin PE detection
Human ICOS [2] = target: T1, Human ICOS; assay: cell-based or functional assay

Binder	binding result (Human ICOS [1])	intracellular IFNγ production in CD4+ T cells (flow cytometry, after tetanus toxoid stimulation) (Human ICOS [2]) [fold]	intracellular TNFα production in CD4+ T cells (flow cytometry, after tetanus toxoid stimulation) (Human ICOS [2]) [fold]
B1	binds		
B2		4	4
